The target in data set [1] is T1, native, full-length VZV gB purified from VZV infected MeWo cells (varicella-zoster virus (parental Oka …, UniProt Q4JR05, N-linked glycosylation (sites in S4 Table))).
T1 construct: VZV glycoprotein B (ORF31), parental Oka strain, residues up to 931; 71-residue signal peptide; native gB is cleaved by furin at 491RSRR494 into two fragments; residues 115-736 resolved in the cryo-EM structure; Held in Amphipol 8-35; also called glycoprotein B; native, full-length gB; not shown: V5, C-terminal, cleaved
Put plainly: cryo-EM structure; Fab fragments added in molar excess to native, full-length gB in TBS pH7.4 with Amphipol 8-35, overnight at +4°C; complexes purified on Superose-6 in TBS pH7.4; 200kV F20 microscope. As to conditions: both partners purified.

Data set [2] has as its target T2, VZV gB wild type expressed from pCAGGS-gB in CHO-DSP1 cells (varicella-zoster virus, UniProt Q4JR05).
T2 construct: VZV glycoprotein B (ORF31) expressed from pCAGGS-gB; detected by an antiserum to residues 833-846 of the cytoplasmic region; also called WT gB; gB-WT; source: CHO-DSP1, transfected (pCAGGS-gB), in lysate; also on fixed transfected cells
Put plainly: western blot; reducing, denaturing SDS-PAGE of anti-V5 immunoprecipitates from transfected CHO-DSP1 cells, blot probed with mAb 93k. As to conditions: one partner purified.

Data set [3] deals with the molecule itself. Briefly: cryo-EM structure; native, full-length gB without antibody, in Amphipol 8-35, TBS pH7.4; 300kV Titan Krios; C3 symmetry imposed.
Data set [4] deals with the molecule itself. Briefly: crystal structure; gB ectodomain; 0.1 M Na acetate pH 4.6, 20% PEG 400, 6% ethylene glycol, room temperature vapor diffusion.

This note sets out measurements from paper PMC7817050 (PLoS Pathogens, 2021).

As a reminder, the stoichiometry N is the number of molecules, sites or subunits per partner or assembly.

B1: Fab fragment of the neutralizing human mAb 93k (Fab, V domains shown)
VH: QVQLVQSGAEVKKPGSSVKVSCKASGGTFSNFAISWVRQAPGQGLEWMGRIMPLFVTSTYAQKFQGRVTISADASTSTAYMELSSLRSDDTAMYYCARDITAPGAAPTPLNFYGMDVWGQGTTVTVSS
VL: DIQMTQSPSTLSASVGDRVTITCRASQTISTWLAWYQQTPRKAPKLMIYKASILENGVPSRFSGSGSGTEFTLTISSLQPEDFATYYCQQYKSYPWTFGQGTKVEI
notes: map of gB-93k deposited here as EMD-22519; I53 of the VL chain is named; also called 93k Fab
In the case of B1, the binding result in data set [1] is given as “binds”.

B2: human neutralizing monoclonal antibody 93k (antibody, V domains shown)
VH: QVQLVQSGAEVKKPGSSVKVSCKASGGTFSNFAISWVRQAPGQGLEWMGRIMPLFVTSTYAQKFQGRVTISADASTSTAYMELSSLRSDDTAMYYCARDITAPGAAPTPLNFYGMDVWGQGTTVTVSS
VL: DIQMTQSPSTLSASVGDRVTITCRASQTISTWLAWYQQTPRKAPKLMIYKASILENGVPSRFSGSGSGTEFTLTISSLQPEDFATYYCQQYKSYPWTFGQGTKVEI
notes: variable part as the heavy chain of m12; as the light chain of m12; Human IgG (detected with anti-human IgG); also called mAb 93k
For the molecule B2, in data set [2], the binding result was “binds”.

B3: native, full-length VZV gB purified from VZV infected MeWo cells (natural protein)
chain: VSPSSFYESLQVEPTQSEDITRSAHLGDGDEIREAIHKSQDAETKPTFYVCPPPTGSTIVRLEPPRTCPDYHLGKNFTEGIAVVYKENIAAYKFKATVYYKDVIVSTAWAGSSYTQITNRYADRVPIPVSEITDTIDKFGKCSSKATYVRNNHKVEAFNEDKNPQDMPLIASKYNSVGSKAWHTTNDTYMVAGTPGTYRTGTSVNCIIEEVEARSIFPYDSFGLSTGDIIYMSPFFGLRDGAYREHSNYAMDRFHQFEGYRQRDLDTRALLEPAARNFLVTPHLTVGWNWKPKRTEVCSLVKWREVEDVVRDEYAHNFRFTMKTLSTTFISETNEFNLNQIHLSQCVKEEARAIINRIYTTRYNSSHVRTGDIQTYLARGGFVVVFQPLLSNSLARLYLQELVRENTNHSPQKHPTRNTRSRRSVPVELRANRTITTTSSVEFAMLQFTYDHIQEHVNEMLARISSSWCQLQNRERALWSGLFPINPSALASTILDQRVKARILGDVISVSNCPELGSDTRIILQNSMRVSGSTTRCYSRPLISIVSLNGSGTVEGQLGTDNELIMSRDLLEPCVANHKRYFLFGHHYVYYEDYRYVREIAVHDVGMISTYVDLNLTLLKDREFMPLQVYTRDELRDTGLLDYSEIQRRNQMHSLRFYDIDKVVQYDSGTAIMQGMAQFFQGLGTAGQAVGHVVLGATGALLSTVHGFTTFLSNPFGALAVGLLVLAGLVAAFFAYRYVLKLKTSPMKALYPLTTKGLKQLPEGMDPFAEKPNATDTPIEEIGDSQNTEPSVNSGFDPDKFREAQEMIKYMTLVSAAERQESKARKKNKTSALLTSRLTGLALRNRRGYSRVRTENVTGV
modifications: N-linked glycosylation (sites in S4 Table)
notes: VZV glycoprotein B (ORF31), parental Oka strain, residues up to 931; 71-residue signal peptide; native gB is cleaved by furin at 491RSRR494 into two fragments; residues 115-736 resolved in the cryo-EM structure; Held in Amphipol 8-35; also called glycoprotein B; native, full-length gB; not shown: V5, C-terminal, cleaved
Consider B3, for which the “stoichiometry N” value in data set [3] was 3.

B4: VZV gB ectodomain used for X-ray crystallography (domain or fragment, varicella-zoster virus (Oka strain), UniProt Q4JR05 72-736, looked up)
chain: VSPSSFYESLQVEPTQSEDITRSAHLGDGDEIREAIHKSQDAETKPTFYVCPPPTGSTIVRLEPPRTCPDYHLGKNFTEGIAVVYKENIAAYKFKATVYYKDVIVSTAGAGSSGTQITNRYADRVPIPVSEITDTIDKFGKCSSKATYVRNNHKVEAFNEDKNPQDMPLIASKYNSVGSKAWHTTNDTYMVAGTPGTYRTGTSVNCIIEEVEARSIFPYDSFGLSTGDIIYMSPFFGLRDGAYREHSNYAMDRFHQFEGYRQRDLDTRALLEPAARNFLVTPHLTVGWNWKPKRTEVCSLVKWREVEDVVRDEYAHNFRFTMKTLSTTFISETNEFNLNQIHLSQCVKEEARAIINRIYTTRYNSSHVRTGDIQTYLARGGFVVVFQPLLSNSLARLYLQELVRENTNHSPQKHPTRNTGSGGSVPVELRANRTITTTSSVEFAMLQFTYDHIQEHVNEMLARISSSWCQLQNRERALWSGLFPINPSALASTILDQRVKARILGDVISVSNCPELGSDTRIILQNSMRVSGSTTRCYSRPLISIVSLNGSGTVEGQLGTDNELIMSRDLLEPCVANHKRYFLFGHHYVYYEDYRYVREIAVHDVGMISTYVDLNLTLLKDREFMPLQVYTRDELRDTGLLDYSEIQRRNQMHSLRFYDIDKVVQ
modifications: N-linked glycosylation (sites in S4 Table)
notes: VZV glycoprotein B (ORF31), Oka strain, codon-modified; residues 72-736, without the 71 amino acid signal peptide; residues 115-736 resolved in the crystal; also called truncated gB; truncated VZV gB; source: HEK293 GnTI- cells, transiently transfected (pCMV-III), purified (Ni-NTA, ion-exchange, Superdex 200)
As for B4, the “stoichiometry N” value in data set [4] worked out at 3.
